Measurements: US20210332120A1

Target: human IL-17A (human) (UniProt Q16552)
Test: cell-based or functional assay

Sequence of human IL-17A (human) (Q16552 20-155 limits assumed): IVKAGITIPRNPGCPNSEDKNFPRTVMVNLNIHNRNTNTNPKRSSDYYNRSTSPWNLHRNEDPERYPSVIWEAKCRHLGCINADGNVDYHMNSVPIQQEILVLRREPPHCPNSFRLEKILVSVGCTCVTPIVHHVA

IC50, IL-17A-dependent IL-6 production, HT1080 cells: 9.2 ng/mL | IC50, dual IL-17A/TNFα-dependent IL-6 production, HT1080 cells: 25 pM
Substance: BCD-085 anti-IL-17A monospecific antibody (BIOCAD)
